The results in this text go back to patent publication US20030108521A1 (published 2003).

This assay deals with T1, F/IX delta 111-140 (human; human adenovirus type 5, UniProt P03372 553-595).
T1 construct: domain: F domain; N-terminally F-tagged pIX truncated after residue 110 (lacks half of the leucine-repeat)
T1 sequence: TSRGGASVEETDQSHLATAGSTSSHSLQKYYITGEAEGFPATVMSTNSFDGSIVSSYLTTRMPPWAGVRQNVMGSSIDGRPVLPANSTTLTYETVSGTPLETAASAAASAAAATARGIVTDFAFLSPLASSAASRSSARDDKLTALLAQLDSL
Nature of the assay: co-immunoprecipitation with anti-F antibody from A549 cell extracts, Western blot with anti-pIX. (A western blot detects proteins with antibodies after separation by electrophoresis.)

B1: non-tagged wild type adenovirus type 5 protein IX (other)
chain: MSTNSFDGSIVSSYLTTRMPPWAGVRQNVMGSSIDGRPVLPANSTTLTYETVSGTPLETAASAAASAAAATARGIVTDFAFLSPLASSAASRSSARDDKLTALLAQLDSLTRELNVVSQQLLDLRQQVSALKASSPPNAV
notes: tested in cell extracts; also called wt pIX; untagged wt pIX
As for B1, the binding result is on record as “no binding”.
